From PMC6464244, “The fungal ribonuclease-like effector protein CSEP0064/BEC1054 represses plant immunity and interferes with degradation of host ribosomal RNA”

Legend:
CSEP0064/BEC1054 [1] = target: T1, CSEP0064/BEC1054 (Blumeria graminis, UniProt N1JJ94 22-118); assay: NMR 1H-15N HSQC titration; fast exchange; small CSPs, saturation at ~50 molar equivalents; binding observed; conditions: protein: recombinant; tags: Trx-His6 removed by TEV; NT-647 NHS amine label for MST; 15N for NMR; hairpin (predicted same fold as SRL RNA)
T1 sequence: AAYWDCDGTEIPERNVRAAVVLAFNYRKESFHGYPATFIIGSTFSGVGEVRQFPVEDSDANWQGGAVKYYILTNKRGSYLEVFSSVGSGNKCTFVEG

CSEP0064/BEC1054 [2] = target: T1, CSEP0064/BEC1054; assay: MST; up to 1 mM; no curve could be fitted; MST: 20 mM Tris pH 7.4, 150 mM NaCl, 0.05% Tween, 50 nM labelled protein; NMR: 50 uM protein, 50 mM Tris, 150 mM NaCl, 308 K; conditions: protein: recombinant; tags: Trx-His6 removed by TEV; NT-647 NHS amine label for MST; 15N for NMR; single strand
CSEP0064/BEC1054 [3] = target: T1, CSEP0064/BEC1054; assay: NMR 1H-15N HSQC titration; 8 mole equivalents; discrete CSPs, weak; conditions: protein: recombinant; tags: Trx-His6 removed by TEV; NT-647 NHS amine label for MST; 15N for NMR; hairpin (SRL fold)

ACCTGCTCAGTACGAGAGGAACCGCAGGT (structured_DNA, DNA version of SRL RNA) [SRL DNA oligonucleotide]
Kd (CSEP0064/BEC1054 [1]): > 10 µM

AAUUUAAUACGACUCACUAUAGG (ssRNA) [bacteriophage T7 promoter RNA (non-rRNA control)]
binding result (CSEP0064/BEC1054 [2]): no binding

ACCUGCUCAGUACGAGAGGAACCGCAGGU (structured_RNA) [SRL RNA (barley 28S rRNA sarcin-ricin loop)]
binding result (CSEP0064/BEC1054 [3]): binds
